Results taken from patent US9447157B2, “Nitration shielding peptides and methods of use thereof” (Augusta University Research Institute, Inc., priority 2013, dated 2016).
“Also recorded” adds a separate entry of the source. No end group written: not given here. *: point of attachment. X1 = 3‑carboxy‑2,2,5,5‑tetramethyl‑3‑pyrrolin‑1‑yloxy, CC1(C)C=C(C(=O)*)C(C)(C)N1[O]

Tests used:
[1] = tested on: human lung microvascular endothelial cells (HLMVEC); assay: Endothelial monolayer resistance (ECIS, TER) in LPS-challenged HLMVEC; format: cell-based; conditions: for Attenuation of LPS-mediated decrease in transendothelial resistance (TER) / barrier disruption: HLMVEC, LPS 1 EU/ml, MnTMPyP 25 μM, ETU 200 μM, 1400W 100 μM
Protocol: The electrical resistance of the endothelial cell monolayer was measured with the electrical cell impedance sensor (ECIS) technique. In this system, the cells are cultured on gold plated electrodes. The change in resistance across the monolayer is measured through an amplifier attached to the arrays. Each study was performed when the resistance reached a plateau. The data was normalized to the initial voltage and plotted as a normalized resistance.
To examine if protein nitration by peroxynitrite is a contributing factor in endothelial barrier disruption in response to LPS, transendothelial resistance (TER) was measured in HLMVEC in the presence or absence of the peroxynitrite scavenger, MnTmPyp. HLMVEC were challenged with LPS (1 EU/ml) in the presence or absence of the peroxynitrite scavenger, MnTMPyP (25 μM).
To evaluate the role played by NOS in the barrier dysfunction, HLMVEC were exposed to LPS in the presence or absence of ETU (a non-specific NOS inhibitor) or 1400W (to inhibit iNOS). HLMVEC were challenged with LPS (1 EU/ml) in the presence or absence of the general NOS inhibitor, ETU (200 μM) or the iNOS specific inhibitor, 1400W (100 μM). The LPS-mediated decrease in TER was attenuated in the presence of ETU, but not 1400W (FIG. 1B). The important role of eNOS was then confirmed using a siRNA approach. HLMVEC were transiently transfected with a siRNA against eNOS or a scrambled control siRNA. After 48 h, there was a significant knockdown of eNOS protein levels (50%), as determined by Western blotting. Reducing eNOS protein levels preserved HLMVEC barrier function when challenged with LPS (FIG. 1C).

Recombinant human PKG-Iα = target: T1, Recombinant human PKG-Iα (Homo sapiens, UniProt Q13976); assay: PKG-Iα activity assay with SIN-1 and shielding peptide; format: biochemical
T1 sequence (Q13976 2-671): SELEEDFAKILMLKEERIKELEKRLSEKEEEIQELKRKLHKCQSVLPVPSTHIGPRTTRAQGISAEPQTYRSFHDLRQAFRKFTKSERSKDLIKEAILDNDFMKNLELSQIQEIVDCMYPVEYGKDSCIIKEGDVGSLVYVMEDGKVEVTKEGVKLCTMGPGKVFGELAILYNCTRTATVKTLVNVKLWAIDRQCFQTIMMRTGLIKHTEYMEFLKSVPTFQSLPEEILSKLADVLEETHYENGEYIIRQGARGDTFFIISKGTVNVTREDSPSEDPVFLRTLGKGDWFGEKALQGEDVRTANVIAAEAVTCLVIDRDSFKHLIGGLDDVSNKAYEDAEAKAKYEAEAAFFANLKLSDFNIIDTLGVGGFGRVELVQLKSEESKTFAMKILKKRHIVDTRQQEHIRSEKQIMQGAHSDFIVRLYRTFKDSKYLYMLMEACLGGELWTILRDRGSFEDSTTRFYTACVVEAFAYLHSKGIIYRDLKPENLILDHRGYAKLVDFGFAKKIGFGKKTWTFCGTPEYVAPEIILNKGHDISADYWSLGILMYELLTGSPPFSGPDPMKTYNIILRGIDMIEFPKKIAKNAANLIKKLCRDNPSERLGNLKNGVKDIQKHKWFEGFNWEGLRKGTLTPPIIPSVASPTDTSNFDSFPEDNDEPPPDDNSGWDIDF
Protocol: A PKG-Iα activity assay was carried out using HLMVEC. Recombinant human PKG-Iα18 was exposed to the peroxynitrite generator, SIN-1 (200 μM, 10 min) with increasing concentrations of the shielding peptide (0-10 μg).

RhoA [2] = target: T2, RhoA (Homo sapiens, UniProt P61586); assay: Biotin pull down assay of peptide binding to RhoA; parameters: polyHis (6His); made in house; host or cells: Escherichia coli BL21; conditions: peptide 100 ng/ml, recombinant human RhoA 0.1 mg
Protocol: To evaluate the ability of each peptide to bind to RhoA each peptide (100 ng/ml) was mixed with recombinant human RhoA (0.1 mg) for the biotin pull down assay.

RhoA [3] = target: T3, RhoA (Mus musculus, UniProt Q9QUI0); assay: RhoA activity, nitration and protein in lungs of LPS treated mice; format: in vivo
T3 construct: from tissue; host or cells: mouse lung (male C57Bl/6)
Protocol: The Committee on Animal Research at Georgia Regents University approved all animal protocols and procedures. Stock solutions of Escherichia coli LPS (0111:B4) were prepared in saline. […] Mice were examined 24 h after LPS treatment. At the end of the treatment lungs were flushed with 3 ml of ice-cold PBS (5 mM EDTA), excised, dipped in saline and blotted dry. A portion of the lung was quickly snap-frozen in liquid nitrogen, crushed to powder in a pre-chilled mortar and stored at -80° C. The remaining lung tissue was stored at -80° C. […] After 24 h, mice were sacrificed and lung tissue was obtained to determine RhoA activity and RhoA nitration, LPS induced RhoA activation in the mouse lung as in HLMVEC (FIG. 7A). […] Total RhoA protein levels and basal RhoA nitration were measured. […] Likewise, basal RhoA nitration levels (FIG. 7D) were unchanged.

HLMVEC = assay: Total protein nitration (3-NT/β-actin) in LPS-treated HLMVEC; format: cell-based, human; conditions: peptide 100 ng/ml 30 min, then LPS 1 EU/ml
Excerpt: Cell extracts were separated on 4-20% gels and electrophoretically transferred to PVDF membrane (Bio-Rad), then blocked with 5% nonfat dry milk in Tris-buffered saline. The membranes were probed with antibodies to RhoA (Cell Signaling), eNOS (BD), iNOS (Cell Signaling), or 3-Nitrotyrosine (Calbiochem). Reactive bands were visualized using chemi-luminescence (Pierce) on a Kodak 440CF image station. Band intensity was quantified using Kodak 1D image processing software. Protein loading was normalized by re-probing with mouse anti-β-actin.

RhoA [4] = target: T2, RhoA; assay: RhoA activity, Rhotekin RBD pull-down, in LPS-treated HLMVEC; format: cell-based; parameters: endogenous in cells; host or cells: HLMVEC (human lung microvascular endothelial cells); conditions: MnTMPyP 25 μM 30 min pre-treatment, LPS 1 EU/ml 4 h
Protocol: RhoA activity levels were measured using the Rhotekin Rho Binding Domain (RBD) pull-down assay. Briefly, 2×10^6 cells were seeded in 10 cm dishes and incubated overnight in DMEM with 10% FBS and 5% antibiotics. The cells were then pretreated with the peroxynitrite scavenger, MynTMPyp (25 μM), for 30 min. The cells were treated with LPS (1 EU/ml) for 4 h. The level of active RhoA pulled down by the assay was measured by Western blot analysis (see above).

RhoA [5] = target: T2, RhoA; assay: RhoA nitration, immunoprecipitation and 3-NT blot, in LPS-treated HLMVEC; format: cell-based; parameters: endogenous in cells; host or cells: HLMVEC (human lung microvascular endothelial cells); conditions: MnTMPyP, LPS 1 EU/ml 4 h
Excerpt: HLMVEC were lysed and centrifuged at 6,000×g and the supernatant collected as previously described (Sud, N., et al., Am. J. Physiol. Lung Cell Mol. Physiol. 293, L1444-1453 (2007); Sharma, S., et al., Am. J. Physiol. Lung Cell Mol. Physiol. 294, L46-56 (2008)). Cell extracts were separated on 4-20% gels and electrophoretically transferred to PVDF membrane (Bio-Rad), then blocked with 5% nonfat dry milk in Tris-buffered saline. The membranes were probed with antibodies to RhoA (Cell Signaling), eNOS (BD), iNOS (Cell Signaling), or 3-Nitrotyrosine (Calbiochem). Reactive bands were visualized using chemi-luminescence (Pierce) on a Kodak 440CF image station. Band intensity was quantified using Kodak 1D image processing software. Protein loading was normalized by re-probing with mouse anti-β-actin.
HLMVEC were homogenized in IP buffer (25 mM Hepes, pH 7.5, 150 mM NaCl, 1% NP-40, 10 mM MgCl2, 1 mM EDTA, 2% glycerol supplemented with protease inhibitors). To precipitate the bound protein, 10 μl of a protein A/G agarose suspension (EMD/Calbiochem) was added for 2 h at 4° C. The samples were then centrifuged at 14,000 rpm for 5 min, the supernatant removed, and the beads washed 3× with IP buffer. Twenty μl of 2× Laemmli buffer was added, the samples were boiled for 5 min, and analyzed as described above. Immunoprecipitation efficiency was normalized by re-probing with RhoA.

RhoA [6] = target: T2, RhoA; assay: Stopped-flow kinetic analysis of mant-GDP/mant-GTP binding to RhoA; parameters: polyHis (6His); made in house; host or cells: Escherichia coli BL21; Binding constant of GDP to RhoA / GTP binding constant of RhoA: unit not given here; conditions: stop-flow, RhoA with or without peroxynitrite (100 μM, 30 min); for Binding constant of GDP to RhoA: mant-GDP; for GTP binding constant of RhoA: mant-GTP
Protocol: RhoA was treated with authentic peroxynitrite (500 μM, 30 min) to induce tyrosine nitration in buffered solution. For kinetic analyses, 2 μM of either mart-GTP or -GDP was mixed with RhoA (0.1 μM) in a stopped-flow instrument (SX-20, […]). Increases in fluorescent intensity mant-nucleotide binding to RhoA were then measured using excitation 350 nm and cutoff filter 395 nm for 0.2-1 second. Acquired kinetic curves for 3-5 experiments were averaged and fitted using the Pro-kineticist software to determine observed binding constants.
To test the validity of the MD data kinetic studies were performed. His-tagged human RhoA construct was expressed in the Escherichia con BL21 strain. First, the bacterial lysate was purified by 6His-tag affinity on a Ni-NTA column. Second, the proteins in the elution fraction from the affinity purification were separated by size-exclusion chromatography (FIG. 11). The fraction containing RhoA was identified both by Coomassie blue staining and Western blot analysis. The recombinant purified RhoA was subjected to rapid flow kinetics to evaluate GDP and GTP binding using fluorescently labeled guanine nucleotides. Peroxynitrite decreases GDP binding to purified RhoA. Human recombinant RhoA was exposed to authentic peroxynitrite (100 μM, 30 min) on ice. The kinetics of binding fluorescently labeled GDP (FIG. 12A) or GTP (FIG. 12B) to RhoA was then performed using stop-flow analysis. Three measurements were averaged and fitted with bimolecular reaction equation. […] However, nitration of RhoA had no effect on the GTP binding constant ([…]).

T2 sequence (P61586 whole entry): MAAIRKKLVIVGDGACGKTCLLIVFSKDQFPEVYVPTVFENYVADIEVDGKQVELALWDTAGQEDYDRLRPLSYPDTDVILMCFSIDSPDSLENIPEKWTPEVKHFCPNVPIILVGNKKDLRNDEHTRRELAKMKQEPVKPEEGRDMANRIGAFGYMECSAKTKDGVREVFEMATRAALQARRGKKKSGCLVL
T3 sequence (Q9QUI0 whole entry): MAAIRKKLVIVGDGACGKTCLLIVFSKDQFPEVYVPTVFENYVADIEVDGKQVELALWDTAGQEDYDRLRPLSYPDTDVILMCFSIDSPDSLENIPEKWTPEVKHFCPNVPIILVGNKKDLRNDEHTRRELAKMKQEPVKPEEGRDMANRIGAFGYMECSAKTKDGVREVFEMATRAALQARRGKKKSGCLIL

In the case of `CCSC(=N)N` [ETU], the “Attenuation of LPS-mediated decrease in transendothelial resistance (TER) / barrier disruption” value [1] is reported as “attenuated”.
With “GALRQKNVK(X)-amide (SEQ ID NO:29), where X is 3-carboxy-2,2,5,5-tetramethyl-3-pyrrolin-1-yloxy (nitroxide) (GALRQKNVK(X1)-NH2; N-terminus assumed; SMILES CC(C)C[C@H](NC(=O)[C@H](C)NC(=O)CN)C(=O)N[C@@H](CCCNC(=N)N)C(=O)N[C@@H](CCC(N)=O)C(=O)N[C@@H](CCCCN)C(=O)N[C@@H](CC(N)=O)C(=O)N[C@H](C(=O)N[C@@H](CCCCNC(=O)C1=CC(C)(C)N([O])C1(C)C)C(N)=O)C(C)C; listed as Homo sapiens) [shielding peptide]” the “PKG-Iα activity against peroxynitrite” value (Recombinant human PKG-Iα; SIN-1 200 μM, 10 min, shielding peptide 0-10 μg) was “preserves; also recorded: dose-dependently preserved”, the “Physiologic PKG-Iα activity” value (Recombinant human PKG-Iα; in vitro) was “did not alter” and the “Barrier function when challenged with LPS” value ([1]; in vitro, LPS challenge) was “preserved”.
For “HRKKRRQRRRQFPVFVPTVF (SEQ ID NO:35) (listed as Homo sapiens) [NipR1F, control peptide in which Y34 was substituted with a phenylalanine residue]”, the “Interaction between RhoA and biotinylated peptide” value (RhoA [2]) was “strong interaction”, the “Basal RhoA nitration levels in mouse lung” value (RhoA [3]; peptide alone, no LPS) was “unchanged” and the “Total RhoA protein levels in mouse lung” value (RhoA [3]; peptide i.p. 0.1 mg/kg, with or without LPS) was “Neither peptide nor LPS treatment altered”. The “Increase in total protein nitration induced by LPS” value (HLMVEC) was “unaffected”.
MnTMPyP was tested, and the “Attenuation of LPS-mediated decrease in transendothelial resistance (TER) / barrier disruption” value [1] was “significantly attenuated”, the “Attenuation of LPS-induced increase in RhoA activity” value (RhoA [4]) was “attenuated” and the “Attenuation of LPS-induced RhoA nitration” value (RhoA [5]) was “attenuated”.
Molecule “RhoA+ONOO: human recombinant RhoA exposed to authentic peroxynitrite (nitrated)” has a Binding constant of GDP to RhoA (RhoA [6]) of 4.03 and a GTP binding constant of RhoA (RhoA [6]) of 36.2.
“RhoA: His-tagged human recombinant purified RhoA” showed a Binding constant of GDP to RhoA (RhoA [6]) of 19.8 and a GTP binding constant of RhoA (RhoA [6]) of 38.7.
